Target: traptavidin (streptavidin-variant), expressed and purified by IMAC (Streptomyces avidinii) (UniProt P22629)
Assay: native MS; native electrospray ionization mass spectrometry of the IMAC-purified proteins; oligomeric state of the protomers (tetramer), no cross-linker

percent of the protein that is tetrameric: 95%
stoichiometry N: 4
Substance: traptavidin (streptavidin-variant), expressed and purified by IMAC (from UniProt P22629 25-183) (natural protein)
